Consider one substance from US20110212106A1, “HIV-1 NE[…] USES THEREOF” (priority 2010, published 2011).

The target of assay [1] is HIV-1 gp120 (strain not stated at these places) (HIV-1). Kind of assay: competition ELISA on immobilized gp120, competitor labeled HJ16. In general terms: In an ELISA, binding on a coated surface is turned into a signal by an enzyme label.
The target in assay [2] is IIIB gp120 envelope protein (HIV-1 IIIB) (UniProt P03375). Kind of assay: ELISA, inhibition of gp120 binding to solid-phase sCD4.

The IC50 is the concentration that inhibits the measured activity by half. In turn, b12 (antibody) showed a plateau of inhibition in assay [1] of 80%. Further, in assay [2], the IC50 came to 1.16 µg/mL.
